The target in this assay is homo-oligomeric archaeal chaperonin from Methanococcus maripaludis (MmCpn) (Methanococcus maripaludis). The experiment in a line: cryo-EM structure; MmCpn 4 uM mixed on ice with 32 uM ATP (1 hexadecamer to 8 ATP), frozen immediately; single-particle reconstruction with D8 symmetry (also C1), 3.9 Å; focused classification of rings and subunits.

Stoichiometry N data for one substance are collected here from PMC8346469.

As usually defined, the stoichiometry N is the number of molecules, sites or subunits per partner or assembly. “homo-oligomeric archaeal chaperonin from Methanococcus maripaludis (MmCpn) (natural protein)”: the stoichiometry N is 16 subunits.
